Assay: yeast display, Sf9 membrane polyspecificity reagent, FACS + sequencing; frameworks hold sequencing errors
Outline: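 A synthetic nanobody library was expressed on Saccharomyces cerevisiae BJ5465 by galactose induction for 36–48 hours. The library was stained for 1 hour at 4 °C with 10% biotinylated, detergent-solubilized Sf9 membrane reagent and enriched with streptavidin microbeads before FACS. Low and high (top ~1%) gates were set on anti-HA fluorescence for expression and streptavidin fluorescence for reagent binding, and each polyreactivity label reflects the gate of origin.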

Sequence	polyreactivity (PSR sort gate)
QVQLVESGGGLFKAGGSLRLSCAASGSIFRYYTMGWYRQAPGKERELVAAINGSGGSTYYADSVKGRFTISRDNAKNTVYLQMNSLKPEDTAVYYCNRVTKEYGLRQYYYWGQGTQVTVSS	low polyreactivity
QVQLVESGGGLFQAGGSLRISCAASGRTFWYYAMGWYRPAPGKERELVAAITRGTSTYADSVKGRYTISRDNAKNTVYLQMNSLKPEDTAVYYCATYFRVWYRSYDYWGQGTQVTVSS	high polyreactivity
QVQLVESGGGLFQAGGSLRLICAASGFIFGWYDMGWYRQAPGKERELVAAIDSGGSTNYADSVKGRFTISRDNAKYTVYLQMNSLKPEDTAVYYCAADHHDVWTEYYYWGHGTQVTVSS	low polyreactivity
QVQLVESGGGLFQAGGSLRLICAASGRTFVVYAMGSYRQAPGKEWELVAAISWSGGRTYYADSVKGRFTMSRDNAKNTVYLQMNTLKPEDTAVYYCPAEVYLYKYVYYYWGQGTQVTVSS	high polyreactivity
QVQLVESGGGLFQAGGSLRLSCAASGFTFARYAMGWYRQAPGKEWELVARISWSGGSTYYADSVKGRFTISRDYAKNTFYLQMYSLKPQVTEVYYCAADGWYYRYPRDDYWGQGTQVTVSS	low polyreactivity
QVQLVESGGGLFQAGGSLRLSCAASGFTFDYYAMGWYRPAPGKERELVAAISRAGSTNYADSVKGRFTISRDNAKNTVYLQMNSLKPEDTAVYYCNKGYHSWSRLSQFGWSYDYWGQGTQVTVSS	high polyreactivity
QVQLVESGGGLFQAGGSLRLSCAASGFTFGIYAMGWYRQAPGKERELVAAITKRGGITSYADSVKGRFTISRDNAKNTVYLQMNSLKPEDTAVYYCAKIGGFLSYWSGDYWGQGTQVTVSS	low polyreactivity
QVQLVESGGGLFQAGGSLRLSCAASGFTFSNYAMGWYRKAPGKERELVAAITRRGGRTRYADSVKGRFTISRDNAKNTVYLQMNSLKPEDTAVYYCARSRYRYIVTTLYLYDYWGQGTQVTVSS	high polyreactivity
QVQLVESGGGLFQAGGSLRLSCAASGFTFVYYAMGWYRQAPGKERELVASISGGGRTYYADSVKGRFTISRENAKNTGYLQMNSLIPEDTAVYYCAARYWDYRNRWLYVYWGQGTQLTVSS	high polyreactivity
QVQLVESGGGLFQAGGSLRLSCAASGFTFYVYAMGWYRQAPGKERELVAAISSGGGSTYYADSVKGRFTISRDNAKNTVYLQMNSLKPEDTAVYYCNKLFPGTYDGAHGYWGQGTQVTVSS	low polyreactivity
QVQLVESGGGLFQAGGSLRLSCAASGIIFAVYDMGWYRQAPGKERELVAAISWSGGSTYYADSVKGRFTISRDNAKNTVYLQMNSLKPEDTAVYYCNRVRYSRLGDYWGQGSQVTVSS	high polyreactivity
QVQLVESGGGLFQAGGSLRLSCAASGIIFYYNTMGWYRQAPGKDRELVAAISQRGRSTYYADSVKGRFTISRDNAKNTVYFHLNSLKPEDTAVFYCNKLRNSHGFRYDYWGQGTQVTVSS	high polyreactivity
QVQLVESGGGLFQAGGSLRLSCAASGLIIAYYAMRWYRQAPGKERELVAAISSVGSTYYADSVNGRFTISRDNAKNTVYLQMNSLKPEDTAVYYCAAAPRGGMYYWGQGTQVTVSS	high polyreactivity
QVQLVESGGGLFQAGGSLRLSCAASGLTFGGNAMGWYRHAPGKERELVAAISSGGSTNYADSVKGRFTISRDNAKNTVYLQMNSLKPEDTAVYYCAVEAWSVPPYDYWGQGTQVTVSS	low polyreactivity
QVQLVESGGGLFQAGGSLRLSCAASGNTFRRNTMGWYRQAPPKERELVATISWRGGKTFYADSVKGRFTISRDNAKNTVYLQMNSLKPEDTAVYYCAADTRTQTYIYGYWGQGTQVTVSS	high polyreactivity
QVQLVESGGGLFQAGGSLRLSCAASGRIFIVITMGWYRQAPGKERELVATIDSDGDTNYADSVKGRFTISRDNAKNTVYLQMNSLKPEDTAVYYCAAYYTHTLAALKGGRMDYWGQGTQVTVSS	low polyreactivity
QVQLVESGGGLFQAGGSLRLSCAASGRIFKYAMGWYRQAPGKERELVAAISSSGGRTYYADSVKGRFTISRDNAKNTVYLQMNSLKPEDTAVYYCAATSYNTQSAFYYWGQGTQVTVSS	high polyreactivity
QVQLVESGGGLFQAGGSLRLSCAASGRIFRGYAMGWYRQAPGKERELVAAIDRVGRTKYADSVKGRFTISRDNAKNTVYLHMNSLKPEDTAVYYCAAKASRVDWGYGYWGQGTQVTVSA	high polyreactivity
QVQLVESGGGLFQAGGSLRLSCAASGRILNINAMGWYRQAPGKERELVAAITWRGGRTFYADSVKGRFTISRDNAKNTVYLQMNSLKPEDTAVYYCAASSNTWYPTGYYWGQGTQVTVSS	high polyreactivity
QVQLVESGGGLFQAGGSLRLSCAASGRIVGLYAMGWYRPAPGKERELVAAISRGGSTNYADSVKGRFTISRDNAKNTVYLQMNSQKPEDPAVYYCNARYVKYYTYLYNYDYWGQGTQVTVSS	high polyreactivity
QVQLVESGGGLFQAGGSLRLSCAASGRTFRVYAMGWYRQAPGKEREFVAAISYSGGRTNYADSVKGRFTISRDYAKNTVYLQKNSLKPEDTAVYYCAARYTWAEGDYWGQGTQVTVSS	low polyreactivity
QVQLVESGGGLFQAGGSLRLSCAASGRTLPAYAMGWYRQAPGKERELVAAISWGGGSTYYADSVKGRFTISRDNAKNTVYLQMNSLKPEDTSVYYCAVAGYWFAVAEYEYWGQGTQVTVSS	low polyreactivity

Sequence	polyreactivity (PSR sort gate)
QVQLVESGGGLFQAGGSLRLSCAASGSIFGHYAMGWYRQAPGKERELVAAISYSGGSTYYADSVKGRFTISRDNAKNTVYLHMNSLKPEDTAVYYCNADLYDAGSEMDYWGQGTQVTVSS	high polyreactivity
QVQLVESGGGLFQAGGSLRLSCAASGSIFRYNTMGWYRHAPGKESELVARISSGGSTYYADSVKGRFTISRDNAKNTVYLQMNSLKPEDTAVYYCAAVSRHRGWDRYYWGQGTQVTVSS	high polyreactivity
QVQLVESGGGLFQAGGSLRLSCAASGSIFSWNDIGRYIQAPGKERELVAAITSGGSTYYADSVKGRFTISRDNAKNTVYLQMNSLKPEDTAVYYCAAGQDLHDFDYWGQGTQVTVSS	low polyreactivity
QVQLVESGGGLFQAGGSLRLSCAASGSIFWSYAMGWYRQAPGKERELVAAISSGGSTNYADSVKGRFTISRDNAKNTVYLQMNSLKPEDTAVYYCNAVGAKGYVKGFDYWGQGTQVTVSS	low polyreactivity
QVQLVESGGGLFQAGGSLRLSCAASGSIFWSYAMGWYRQAPGKERELVAAISSGGSTNYADSVKGRFTISRDNAKNTVYLQMNSLQPEDTAVYYCNALGAKGYVKGFDYWGQGTQVTVSS	low polyreactivity
QVQLVESGGGLFQAGGSLRLSCAASGSSFPFYAMGWYRQAPGKERELVASISSGGSTNYADSVKGRFTISRDNAKNTVYLQMNSLKPEDTAVYYCNADVPYRWDTWFQVVYPESYDYWGQGTQVTVSS	low polyreactivity
QVQLVESGGGLFQAGGSLRLSCAASGSTFAVYAMGWYRQAPGKERELVAVISWSDGRTYYADSVKGRFTISRDNAKNTVYLQMNSLKPEDTAVYYCNARLDTFVPRYGYWGHGTQVTVSS	high polyreactivity
QVQLVESGGGLFQAGGSLRLSCAASGSTFDVNTMGGYRQAPGKERELVAAIRLRGGSTYYADSVKGRFTISRYNAKNTVYLQMNSLKPEDTAVYYCAARYPWVYYDFDYWGQGTQVTVSS	low polyreactivity
QVQLVESGGGLFQAGGSLRLSCAASGSTFKRYAMGWYRQAPGKERELVAAITLSGGNTYYADSVKGRFTISRYNAKNTVYLQMNSLKPEDTAVYYCAARRYRGYDYWGQGTQVTVSS	high polyreactivity
QVQLVESGGGLFQAGGSLRLSCAASGSTLWRNAMGWYRQATGKERELVAAITRRGGITYYADSVKGRFTISRDNAKNTVYLQMNSLKPEDTAVYYCNAVRSTDGSDYWGQGTQVTVSS	high polyreactivity
QVQLVESGGGLFQAGGSLRLSCAASGYTFPLYDMGWYRQAPGKERELVADINIGGASTYYADSVKGRFTISRDNAKNTVNLQMNSLKPEDTAVYYCAKEYNDGYFPTFDYDYWGQGTQVTVSS	low polyreactivity
QVQLVESGGGLFQAGGSLRLSCAASVSIFSWYTMGWYRQAPGKERELDAAITSSGGSTYYADSVKGRFTISRDNAKNTVYLQMNSLKPEDTAVYYCAAKSWFYYLHRPYVRRYDYWGQGTQVTVSS	high polyreactivity
QVQLVESGGGLFQAGGSLRLSCADYGSTFRTYVMGWYRQAPGKESEFVAAITNGISTNYADSVKGRFTISRDNAKYTFYLQMNSLKPEDTAVYYCAARVRRGSTQAQYYYWGQGTQVTVSS	high polyreactivity
QVQLVESGGGLFQAGGSLRVSCAASGRTFVNYAMGWYRQAAGKERELVAAISTSGGSTYYADSVKGRFTISRDNAKNTDYYQRNSLKPEDTAVYYCKKVRYLAVNLGQFTFDYWGQGTQGTVSS	low polyreactivity
QVQLVESGGGLFQAGGSLSLRCAASGSIFEVNALGWDRQGPGKERELVAAISQRGTRTYYADSVKGRFTMSRDYAKNTVYLQMNILKPEDTAVYYCNRGGWRQYDSWGQGTQVTVST	high polyreactivity
QVQLVESGGGLFQAGRSLPLSCAASGIIFTQYPMGWYRQAPGKERELVAAISGSGGRTYYADSVKGRFSISRDNEKNTVYLQMKILKPEDTAVYYCAARYARYGNDYWGQCTQVTVSS	high polyreactivity
QVQLVESGGGLFQAGRSLRLICAASGRIFNQYPMGWSRQAPGKETELVAAIRRSSDSTYYADSVKGRFTISRDNAKNTVYLQMNSLTPEDSAVYYCATDGYRRWVWMEYWGQGTQVTVSS	low polyreactivity
QVQLVESGGGLFQARGSLRLSCAASGRTFWYYTMGWYRPAPGKERELVASITYRGGSTYYADSVKGRFTISRDNAKITVYLQMNSLKREDTALYYCYARYKRYSYDYWGQGTQVTVSS	high polyreactivity
QVQLVESGGGLFQEGGSLRLSCAASGRTLRYYAMGWYRQAPGKVRELVAAISSGGTTNYADSVKGRFTISRDNAKNTVYFQMKSLKPEDTAVYYFAASYRRFRFSHYDYWGQVTQVTVSS	high polyreactivity
QVQLVESGGGLFQEGGSLRLSCAASGSIFEPYVMGWYRQAPGKESELVAAIRQTGGSTYYADSVKGRFTISRDNAKNTVYLQMNSLKPEDTAVYYCNAEQNPSGLYDYRGVEGEMGYWGQGTQVTVSS	low polyreactivity
QVQLVESGGGLGHAGGSLRLSCAASGFTYTAYAMGWYRQAPGKERELVPSISKSDGSTYYADSVKGRFTISRDNAKNTVYLQMKSVKPEDTAVYYCATGRISRDFHRVQDLGYDYWGQGTQVNVSS	low polyreactivity

Reference: the nanobody polyreactivity screen of Harvey et al. (2022)
